In patent US20150344570A1 (published 2015):

Molecular target: T1, FcγRIa (human, UniProt P12314 16-292)
T1 construct: extracellular domain; Soluble extracellular domain expressed in FreeStyle293 cells, used as analyte in Biacore; also called FcgRI; 1a; not shown: His tag attached to the C terminus
Experiment: SPR (Biacore); He Ab vs HeCon Ab GpH7-A5/GpH7-B3/GpL16-k0
Procedure: Analysis of interaction between objective antibody and the FcγR was carried out using Biacore T100 (GE Healthcare). HBS-EP+ (GE Healthcare) was used as the running buffer, and the measurement temperature was set to 25° C. Chips produced by immobilizing the antigen peptide by the amine coupling method to a Series S Sencor Chip CM5 (GE Healthcare), or alternatively, chips produced by allowing preliminarily biotinylated antigen peptides to interact with and immobilize onto a Series S Sensor Chip SA (certified) (GE Healthcare) were used. Antibodies of interest were captured onto an antigen peptide-immobilized chip, and allowed to interact to each FcγR diluted with running buffer. To regenerate and repeatedly use the chip, the antibodies captured on the chip were washed off by reacting 10 mM glycine-HCl, pH 1.5.

T1 sequence (P12314 16-292): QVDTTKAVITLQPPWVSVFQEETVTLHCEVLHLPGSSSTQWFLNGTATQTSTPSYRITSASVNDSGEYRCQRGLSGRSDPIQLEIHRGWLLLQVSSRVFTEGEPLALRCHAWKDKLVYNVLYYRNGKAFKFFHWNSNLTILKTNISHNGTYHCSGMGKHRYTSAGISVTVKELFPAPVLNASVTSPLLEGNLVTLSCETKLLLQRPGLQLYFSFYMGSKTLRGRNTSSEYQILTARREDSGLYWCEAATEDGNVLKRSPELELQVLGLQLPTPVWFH

Binder | He/Con_1a
GpH7-A5/GpH7-B3 variant S324_20W/GpL16-k0 (antibody, human IgG1, kappa, also called He Ab S324_20W) heavy 1: not shown heavy 2: not shown light: DIVMTQSPLSLPVTPGEPASISCQASESLVHSNRNTYLHWYLQKPGQSPQLLIYKVSNRFSGVPDRFSGSGSGTDFTLKISRVEAEDVGVYYCSQNTHVPPTFGQGTKVEIERTVAAPSVFIFPPSDEQLKSGTASVVCLLNNFYPREAKVQWKVDNALQSGNSQESVTEQDSKDSTYSLSSTLTLSKADYEKHKVYACEVTHQGLSSPVTKSFNRGEC | 114 relative binding, control = 100
GpH7-A5/GpH7-B3 variant S298_12R/GpL16-k0 (antibody, human IgG1, kappa, also called He Ab S298_12R) heavy 1: not shown heavy 2: not shown light: DIVMTQSPLSLPVTPGEPASISCQASESLVHSNRNTYLHWYLQKPGQSPQLLIYKVSNRFSGVPDRFSGSGSGTDFTLKISRVEAEDVGVYYCSQNTHVPPTFGQGTKVEIERTVAAPSVFIFPPSDEQLKSGTASVVCLLNNFYPREAKVQWKVDNALQSGNSQESVTEQDSKDSTYSLSSTLTLSKADYEKHKVYACEVTHQGLSSPVTKSFNRGEC | 109 relative binding, control = 100
GpH7-A5/GpH7-B3 variant S324_16H/GpL16-k0 (antibody, human IgG1, kappa, also called He Ab S324_16H) heavy 1: not shown heavy 2: not shown light: DIVMTQSPLSLPVTPGEPASISCQASESLVHSNRNTYLHWYLQKPGQSPQLLIYKVSNRFSGVPDRFSGSGSGTDFTLKISRVEAEDVGVYYCSQNTHVPPTFGQGTKVEIERTVAAPSVFIFPPSDEQLKSGTASVVCLLNNFYPREAKVQWKVDNALQSGNSQESVTEQDSKDSTYSLSSTLTLSKADYEKHKVYACEVTHQGLSSPVTKSFNRGEC | 113 relative binding, control = 100
GpH7-A5/GpH7-B3 variant S324_15Y/GpL16-k0 (antibody, human IgG1, kappa, also called He Ab S324_15Y) heavy 1: not shown heavy 2: not shown light: DIVMTQSPLSLPVTPGEPASISCQASESLVHSNRNTYLHWYLQKPGQSPQLLIYKVSNRFSGVPDRFSGSGSGTDFTLKISRVEAEDVGVYYCSQNTHVPPTFGQGTKVEIERTVAAPSVFIFPPSDEQLKSGTASVVCLLNNFYPREAKVQWKVDNALQSGNSQESVTEQDSKDSTYSLSSTLTLSKADYEKHKVYACEVTHQGLSSPVTKSFNRGEC | 114 relative binding, control = 100
GpH7-A5/GpH7-B3 variant S298_10E/GpL16-k0 (antibody, human IgG1, kappa, also called He Ab S298_10E) heavy 1: not shown heavy 2: not shown light: DIVMTQSPLSLPVTPGEPASISCQASESLVHSNRNTYLHWYLQKPGQSPQLLIYKVSNRFSGVPDRFSGSGSGTDFTLKISRVEAEDVGVYYCSQNTHVPPTFGQGTKVEIERTVAAPSVFIFPPSDEQLKSGTASVVCLLNNFYPREAKVQWKVDNALQSGNSQESVTEQDSKDSTYSLSSTLTLSKADYEKHKVYACEVTHQGLSSPVTKSFNRGEC | 108 relative binding, control = 100
GpH7-A5/GpH7-B3 variant S324_02A/GpL16-k0 (antibody, human IgG1, kappa, also called He Ab S324_02A) heavy 1: not shown heavy 2: not shown light: DIVMTQSPLSLPVTPGEPASISCQASESLVHSNRNTYLHWYLQKPGQSPQLLIYKVSNRFSGVPDRFSGSGSGTDFTLKISRVEAEDVGVYYCSQNTHVPPTFGQGTKVEIERTVAAPSVFIFPPSDEQLKSGTASVVCLLNNFYPREAKVQWKVDNALQSGNSQESVTEQDSKDSTYSLSSTLTLSKADYEKHKVYACEVTHQGLSSPVTKSFNRGEC | 103 relative binding, control = 100
GpH7-A5/GpH7-B3 variant S298_18N/GpL16-k0 (antibody, human IgG1, kappa, also called He Ab S298_18N) heavy 1: not shown heavy 2: not shown light: DIVMTQSPLSLPVTPGEPASISCQASESLVHSNRNTYLHWYLQKPGQSPQLLIYKVSNRFSGVPDRFSGSGSGTDFTLKISRVEAEDVGVYYCSQNTHVPPTFGQGTKVEIERTVAAPSVFIFPPSDEQLKSGTASVVCLLNNFYPREAKVQWKVDNALQSGNSQESVTEQDSKDSTYSLSSTLTLSKADYEKHKVYACEVTHQGLSSPVTKSFNRGEC | 108 relative binding, control = 100
GpH7-A5/GpH7-B3 variant S324_12R/GpL16-k0 (antibody, human IgG1, kappa, also called He Ab S324_12R) heavy 1: not shown heavy 2: not shown light: DIVMTQSPLSLPVTPGEPASISCQASESLVHSNRNTYLHWYLQKPGQSPQLLIYKVSNRFSGVPDRFSGSGSGTDFTLKISRVEAEDVGVYYCSQNTHVPPTFGQGTKVEIERTVAAPSVFIFPPSDEQLKSGTASVVCLLNNFYPREAKVQWKVDNALQSGNSQESVTEQDSKDSTYSLSSTLTLSKADYEKHKVYACEVTHQGLSSPVTKSFNRGEC | 102 relative binding, control = 100
GpH7-A5/GpH7-B3 variant S298_14T/GpL16-k0 (antibody, human IgG1, kappa, also called He Ab S298_14T) heavy 1: not shown heavy 2: not shown light: DIVMTQSPLSLPVTPGEPASISCQASESLVHSNRNTYLHWYLQKPGQSPQLLIYKVSNRFSGVPDRFSGSGSGTDFTLKISRVEAEDVGVYYCSQNTHVPPTFGQGTKVEIERTVAAPSVFIFPPSDEQLKSGTASVVCLLNNFYPREAKVQWKVDNALQSGNSQESVTEQDSKDSTYSLSSTLTLSKADYEKHKVYACEVTHQGLSSPVTKSFNRGEC | 107 relative binding, control = 100
GpH7-A5/GpH7-B3 variant S324_11K/GpL16-k0 (antibody, human IgG1, kappa, also called He Ab S324_11K) heavy 1: not shown heavy 2: not shown light: DIVMTQSPLSLPVTPGEPASISCQASESLVHSNRNTYLHWYLQKPGQSPQLLIYKVSNRFSGVPDRFSGSGSGTDFTLKISRVEAEDVGVYYCSQNTHVPPTFGQGTKVEIERTVAAPSVFIFPPSDEQLKSGTASVVCLLNNFYPREAKVQWKVDNALQSGNSQESVTEQDSKDSTYSLSSTLTLSKADYEKHKVYACEVTHQGLSSPVTKSFNRGEC | 102 relative binding, control = 100
GpH7-A5/GpH7-B3 variant S324_08L/GpL16-k0 (antibody, human IgG1, kappa, also called He Ab S324_08L) heavy 1: not shown heavy 2: not shown light: DIVMTQSPLSLPVTPGEPASISCQASESLVHSNRNTYLHWYLQKPGQSPQLLIYKVSNRFSGVPDRFSGSGSGTDFTLKISRVEAEDVGVYYCSQNTHVPPTFGQGTKVEIERTVAAPSVFIFPPSDEQLKSGTASVVCLLNNFYPREAKVQWKVDNALQSGNSQESVTEQDSKDSTYSLSSTLTLSKADYEKHKVYACEVTHQGLSSPVTKSFNRGEC | 103 relative binding, control = 100
